{"source": "patent US20210292426A1", "binders": {"B1": {"name": "P1AD4470 (CD40 IgG1, control) (antibody, from a related filing, V domains shown)", "VH": "EVQLVESGGGLVQPGGSLRLSCAASGYSFTGYYIHWVRQAPGKGLEWVARVIPNAGGTSYNQKFKGRFTLSVDNSKNTAYLQMNSLRAEDTAVYYCAREGIYWWGQGTLVTVSS", "VL": "DIQMTQSPSSLSASVGDRVTITCRSSQSLVHSNGNTFLHWYQQKPGKAPKLLIYTVSNRFSGVPSRFSGSGSGTDFTLTISSLQPEDFATYFCSQTTHVPWTFGQGTKVEIKR"}}, "key": {"[1]": {"biological_target": "human CD40 expressed on cells (human) (UniProt P25942)", "assay": "flow cytometry, Raji cells"}, "[2]": {"biological_target": "human CD40 expressed on cells (human) (UniProt P25942)", "assay": "flow cytometry, primary human B cells"}, "[3]": {"biological_target": "human CD40 extracellular domain with C-terminal His-AviTag (human) (UniProt P25942)", "assay": "SPR (Biacore), antibody captured, CD40 ECD analyte"}}, "data": [{"binder": "B1", "values": [{"measurement": "EC50", "setting": "[1]", "value": 0.09, "unit": "µg/mL"}, {"measurement": "EC50", "setting": "[2]", "value": 0.333, "unit": "nM"}, {"measurement": "Kd", "setting": "[3]", "value": 4.6, "unit": "nM"}, {"measurement": "koff", "setting": "[3]", "value": 0.00781, "unit": "s⁻¹"}, {"measurement": "kon", "setting": "[3]", "value": "1.69e+06", "unit": "M⁻¹ s⁻¹"}]}]}
